The supplement of paper PMC7877785
± gives the uncertainty stated by the source.

Assay: self-splicing fitness, log relative to wild type (ln ratio); higher = more splicing; Tetrahymena group I intron in knt gene, E. coli kanamycin selection, DiMSum; sequences stand for … in CUCUCU…GGAGGGAAAAGUUAUCAGGCAUGCACCUGGUAGCUAGUCUUUAAACCAAUAGAUUGCAUCGGUUUAAAAGGCAAGACCGUCAAAUUGCGGGAAAGGGGUCAACAGCCGUUCAGUACCAAGUCUCAGGGGAAACUUUGAGAUGGCCUUGCAAAGGGUAUGGUAAUAAGCUGACGGACAUGGUCCUAACCACGCAGCCAAGUCCUAAGUCAACAGAUCUUCUGUUGAUAUGGAUGCAGUUCACAGACUAAAUGUCGGUCGGGGAAGAUGUAUUCUUCUCAUAAGAUAUAGUCGGACCUCUCCUUAAUGGGAGCUAGCGGAUGAAGUGAUGCAACACUGGAGCCGCUGGGAACUAAUUUGUAUGCGAAAGUAUAUUGAUUAGUUUUGGAGUACUCGUGGUCG
Method in brief: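 Fitness was computed with DiMSum as the error-weighted combination of replicate fold changes, kanamycin versus none, each normalised to wild type. The library randomised all eight intron nucleotides of the P1ex region, with the intron placed in the knt kanamycin-resistance gene on pET-22b(+) in E. coli BL21(DE3). Six replicate transformations were grown overnight at 37°C or 30°C on LB agar with or without 25 μg/mL kanamycin, plus 100 μg/mL carbenicillin, 50 μM IPTG and 0.2% rhamnose. Pooled colonies were amplicon-sequenced on an Illumina HiSeq 2500.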

Row | Sequence | self-splicing fitness (ln) (30 °C) | self-splicing fitness (ln) (37 °C)
1 | CGGUAGCAAUAUUACGGGGA | -2.53 ± 0.24 | -3.03 ± 0.47
2 | CGGUAGCAAUAUUACGGGUC | -4.51 ± 0.46 | -4.33 ± 0.39
3 | CGGUAGCAAUAUUACGGUCA | -0.916 ± 0.092 | -0.275 ± 0.084
4 | CGGUAGCAAUAUUACGGUGA | -3.76 ± 0.41 | -0.848 ± 0.17
5 | CGGUAGCAAUAUUACGGUUA | -2.23 ± 0.13 | -1.3 ± 0.11
6 | CGGUAGCAAUAUUACGUCUC | -2.46 ± 0.12 | -1.86 ± 0.13
7 | CGGUAGCAAUAUUACGUGUU | -4.12 ± 0.28 | -3.09 ± 0.27
8 | CGUAAGCAAUAUUACGAAAG | -1.98 ± 0.13 | -0.821 ± 0.12
9 | CGUAAGCAAUAUUACGAACG | -3.04 ± 0.18 | -1.76 ± 0.22
10 | CGUAAGCAAUAUUACGACAG | -0.247 ± 0.11 | -0.867 ± 0.14
11 | CGUAAGCAAUAUUACGACGG | 0.0203 ± 0.061 | -0.0967 ± 0.082
12 | CGUAAGCAAUAUUACGACUG | -0.564 ± 0.081 | 0.421 ± 0.13
13 | CGUAAGCAAUAUUACGAGGG | -2.74 ± 0.19 | -1.86 ± 0.24
14 | CGUAAGCAAUAUUACGAUCG | -1.03 ± 0.11 | -0.0852 ± 0.13
15 | CGUAAGCAAUAUUACGCACC |  | -0.957 ± 0.39
16 | CGUAAGCAAUAUUACGCAUG | -1.88 ± 0.13 | -0.863 ± 0.13
17 | CGUAAGCAAUAUUACGCCGU | -3.89 ± 0.26 | -2.65 ± 0.21
18 | CGUAAGCAAUAUUACGCUCG | -1.8 ± 0.17 | -0.572 ± 0.23
19 | CGUAAGCAAUAUUACGGAAC |  | -1.39 ± 0.39
20 | CGUAAGCAAUAUUACGGCGG | -0.217 ± 0.072 | -0.126 ± 0.096
21 | CGUAAGCAAUAUUACGGCUG | -0.231 ± 0.062 | -0.177 ± 0.095
22 | CGUAAGCAAUAUUACGGCUU | -3.69 ± 0.21 | -2.02 ± 0.25
23 | CGUAAGCAAUAUUACGUACU | -0.922 ± 0.098 | -0.936 ± 0.11
24 | CGUAAGCAAUAUUACGUCCC | -3.09 ± 0.38 | -1.21 ± 0.29
25 | CGUAAGCAAUAUUACGUGAA | -3.19 ± 0.14 | -1.61 ± 0.15
26 | CGUAAGCAAUAUUACGUGGA | -2.93 ± 0.2 | -2.44 ± 0.24
27 | CGUAAGCAAUAUUACGUGUA | -3.25 ± 0.22 | -0.592 ± 0.13

Row | Sequence | self-splicing fitness (ln) (30 °C) | self-splicing fitness (ln) (37 °C)
28 | CGUAAGCAAUAUUACGUUGU | -3.29 ± 0.18 | -2.53 ± 0.22
29 | CGUCAGCAAUAUUACGAAGG | -0.693 ± 0.074 | -0.652 ± 0.11
30 | CGUCAGCAAUAUUACGACAG | -0.576 ± 0.097 | 0.297 ± 0.13
31 | CGUCAGCAAUAUUACGAGGC | -4.66 ± 0.36 | -3.2 ± 0.47
32 | CGUCAGCAAUAUUACGAUAU | -2.13 ± 0.13 | -0.978 ± 0.13
33 | CGUCAGCAAUAUUACGCAAC | -3.74 ± 0.3 | -2.47 ± 0.23
34 | CGUCAGCAAUAUUACGCAGG | -3.85 ± 0.3 | -1.69 ± 0.18
35 | CGUCAGCAAUAUUACGCCGG | -1.69 ± 0.12 | -1.27 ± 0.17
36 | CGUCAGCAAUAUUACGCUAA | -2.28 ± 0.18 | -0.0328 ± 0.15
37 | CGUCAGCAAUAUUACGCUCG | -2.69 ± 0.18 | -1.63 ± 0.15
38 | CGUCAGCAAUAUUACGCUUA | -2.18 ± 0.23 | -1.14 ± 0.17
39 | CGUCAGCAAUAUUACGGACC | -0.189 ± 0.17 | 0.292 ± 0.17
40 | CGUCAGCAAUAUUACGGAGG | -1.93 ± 0.1 | -1.57 ± 0.16
41 | CGUCAGCAAUAUUACGGCAG | -0.866 ± 0.064 | -0.287 ± 0.077
42 | CGUCAGCAAUAUUACGGGCC | -1.25 ± 0.087 | -0.797 ± 0.11
43 | CGUCAGCAAUAUUACGGUUC | -3.67 ± 0.31 | -0.0181 ± 0.15
44 | CGUCAGCAAUAUUACGUAAC | -3.29 ± 0.35 | -2.29 ± 0.26
45 | CGUCAGCAAUAUUACGUUCU | -1.39 ± 0.098 | -0.462 ± 0.11
46 | CGUGAGCAAUAUUACGAAUA | -2.8 ± 0.28 | -2.87 ± 0.32
47 | CGUGAGCAAUAUUACGACAG | -0.792 ± 0.092 | -0.318 ± 0.1
48 | CGUGAGCAAUAUUACGACAU | -3.809 ± 0.03 | -2.19 ± 0.039
49 | CGUGAGCAAUAUUACGAGCG | -3.57 ± 0.3 | -2.52 ± 0.29
50 | CGUGAGCAAUAUUACGAGCU | -2.79 ± 0.17 | -2.99 ± 0.25
51 | CGUGAGCAAUAUUACGAUGG | -0.492 ± 0.1 | -0.139 ± 0.13
52 | CGUGAGCAAUAUUACGAUUA |  | -2.93 ± 0.25
53 | CGUGAGCAAUAUUACGCAAA |  | -1.84 ± 0.46
54 | CGUGAGCAAUAUUACGCGGC | -2.91 ± 0.24 | -3.19 ± 0.28

Row | Sequence | self-splicing fitness (ln) (30 °C) | self-splicing fitness (ln) (37 °C)
55 | CGUGAGCAAUAUUACGCGGG | -1.74 ± 0.25 | 
56 | CGUGAGCAAUAUUACGCUGU | -3.2 ± 0.26 | -2.43 ± 0.26
57 | CGUGAGCAAUAUUACGCUUG | -2.56 ± 0.11 | -2.07 ± 0.13
58 | CGUGAGCAAUAUUACGGAGC | -2.97 ± 0.36 | 
59 | CGUGAGCAAUAUUACGGAUG | -1.55 ± 0.075 | -0.983 ± 0.094
60 | CGUGAGCAAUAUUACGGCAA | -2.81 ± 0.2 | -1.43 ± 0.19
61 | CGUGAGCAAUAUUACGGCCU | -2.22 ± 0.23 | -3.57 ± 0.46
62 | CGUGAGCAAUAUUACGGUAC | -3.78 ± 0.35 | -1.63 ± 0.31
63 | CGUGAGCAAUAUUACGUAUG | -1.37 ± 0.11 | -0.0658 ± 0.12
64 | CGUGAGCAAUAUUACGUCAA | -2.01 ± 0.24 | -1.35 ± 0.2
65 | CGUGAGCAAUAUUACGUCGU |  | -2.72 ± 0.28
66 | CGUGAGCAAUAUUACGUCUC | -3.22 ± 0.21 | -2.29 ± 0.19
67 | CGUGAGCAAUAUUACGUGAA |  | -1.17 ± 0.22
68 | CGUGAGCAAUAUUACGUUAC | -3.96 ± 0.43 | 
69 | CGUUAGCAAUAUUACGAACA | -0.595 ± 0.16 | 0.0081 ± 0.16
70 | CGUUAGCAAUAUUACGAGCG | -3.69 ± 0.21 | -2.63 ± 0.21
71 | CGUUAGCAAUAUUACGAGGU | -4.3 ± 0.29 | -2.49 ± 0.23
72 | CGUUAGCAAUAUUACGAUCU | -1.14 ± 0.091 | -0.132 ± 0.12
73 | CGUUAGCAAUAUUACGCCAA | -1.97 ± 0.45 | 
74 | CGUUAGCAAUAUUACGCGUG | -1.3 ± 0.099 | -1.36 ± 0.089
75 | CGUUAGCAAUAUUACGGAUG | -1.85 ± 0.11 | -1.37 ± 0.14
76 | CGUUAGCAAUAUUACGGCAA | -2.91 ± 0.2 | -1.1 ± 0.15
77 | CGUUAGCAAUAUUACGGCGU | -3.75 ± 0.31 | -0.556 ± 0.19
78 | CGUUAGCAAUAUUACGGCUG | -0.2 ± 0.093 | -0.439 ± 0.12
79 | CGUUAGCAAUAUUACGGGGA |  | -2.28 ± 0.3
